In publication doi:10.1101/2025.01.22.634249:

Biological target: TMHC2, designed transmembrane (TM) homodimer, monomeric construct with N-terminal SpyTag and SnoopTag (wild type)
Experiment: single-molecule magnetic tweezers

increase of partial TMHC2 dimerization up to the I1 state with peptide II: 41%
percent of traces with only partial TMHC2 dimerization with 10 μM peptide: 62%
probability of complete TMHC2 dimerization with 10 μM peptide: 38%
B1: peptide II (13-aa peptide …) (peptide)
peptide: TRTEIIRELERSL
